Here are results for one variant from IntAct's records for PubMed 20584941.

B1: Protein RESTRICTED TEV MOVEMENT 3 (Arabidopsis thaliana (Mouse-ear cress)), D5K228 (parent)
chain: MGKQFDKKITWTIKNFASLLSDLIYSDHFVVGGCKWHLRAYPKGYNNANSLSLFLGVAVPTSLPSGWRRHTKFRLTLVNQLSDKLSQSKLNELEQWFDEKTTNWGLSSMCPLNEIHAKDSGFLLNGELKIVVEIKVLETIGKLDVTEETSTITETVDVNGFQLLPSQAKSVSRMFAKHPELASDLRPKNPNLRTGYMSLLLSLIETLSQLPQQMSKDDLLDAYDALGSMRDAGFKLDWLEKKLYEVSEKKENEEASETGLQEMEEELKDMKQKCLEMEALVEKEKAKVSTAKAPISFDDIV
partner: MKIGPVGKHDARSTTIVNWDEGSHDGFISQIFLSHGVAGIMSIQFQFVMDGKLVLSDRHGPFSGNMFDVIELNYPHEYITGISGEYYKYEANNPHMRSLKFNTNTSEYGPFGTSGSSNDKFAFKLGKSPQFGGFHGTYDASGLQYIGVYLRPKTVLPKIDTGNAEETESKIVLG

The assay covers variants of B1. The following applies: with jal1_arath RTM1, Q9SE37.
In the case of E284K, the “effect of a mutation on the interaction” value is “decreasing interaction”.
